According to the supplement of paper PMC9170038:

Tested on: MS2 coat protein
Assay: apparent KD of MS2 coat protein; higher = weaker reporter binding
Settings: Eterna round: R107
Summary of the method: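 The buffer was 100 mM Tris-HCl pH 7.5 with 80 mM KCl and 4 mM MgCl2, used without or with constant ligand. In it, RNA switches transcribed on-chip from Illumina sequencing clusters were titrated with SNAP-549-labelled MS2 coat protein in twofold steps from 0.7 or 1.5 nM to 3 µM. Apparent KD for each design is the median of its normalised cluster binding-curve fits.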

[1] = input ligand: theophylline 20 uM
[2] = input ligand: theophylline 2 mM
[3] = input ligand: tryptophan 2.4 mM

Sequence	apparent KD of MS2 coat protein (input ligand: arginine 13.2 mM)	apparent KD of MS2 coat protein [1]	apparent KD of MS2 coat protein [2]	apparent KD of MS2 coat protein [3]	apparent KD of MS2 coat protein (input ligand: none)
GACAUAUGCUAUGCGCAGGCUACCCUCAGCCGAGGACCGGUACGGCCGCCACUCGUACUACCACAUGAGGAUCACCCAUGUUAUC [theeternabot_exclusion_MS2_Trp_A_29]	0.0201 µM	0.0284 µM	0.0239 µM	–	–
UAGAAGAACAUGCGGGCUCCGGACGGUGAUACCAGAUCGAAAAGGAUCCCUUGGCAGCACUGCACAUGAGGAUCACCCAUGUGCA [theeternabot_exclusion_MS2_Theo_A_7]	0.0118 µM	0.011 µM	–	0.0101 µM	–
AGUACACGAACUGAUACCAGCCGGACAUGAGGAUCACCCAUGUCCUACCUCUGUUCGGUUGGCCCUUGGCAGCAGUUCGUGUACA [Omei Theo B SS A v9]	0.0405 µM	0.391 µM	–	0.0762 µM	–
AACCGAGGCUAUCCUCUCCGCCUAUGUGAUACCAGAAUAAUUUUAUUCCCUUGGCAGCAUGACAUGAGGAUCACCCAUGUCUCUU [SSTheo A #11]	0.0152 µM	0.0194 µM	–	0.0173 µM	–
CACGAAAGAUCGGCCGCCACUAAUCUAUGUGUACUAGCACAUGAGGAUCACCCAUGUUCUUGCGUUAGGACCGGGAUUGAGCGUG [#03 Exclusion Tryptophan B]	0.0234 µM	0.0276 µM	0.024 µM	–	–
AACCGAGGCUAUCCUCUACGACUAUGUGAUACCAGAAUAAUUUUAUUCCCUUGGCAGCAUGACAUGAGGAUCACCCAUGUCUCUU [SSTheo A #9]	0.024 µM	0.0388 µM	–	0.034 µM	–
CGACUACAGCGUGAUACCAGUGACAGAUACCAGUCUAGACAUGAGGAUCACCCAUGUACGCGCCCUUGGCAGCACACUAGAUCGA [#29 Same State - Theophylline B]	0.0367 µM	0.128 µM	–	0.0832 µM	–
GUUAUAUACUCGGCCGCCACUGAGAGAGUCAUGUAAACAUGAGGAUCACCCAUGUAAUAUAUAUACAGGACCGGGAGUAUGGUAA [4.E]	0.0121 µM	0.0186 µM	0.014 µM	–	–
GCUAGGUCUACGGCCGCCACUAGACGUGGGUAAAACAUGAGGAUCACCCAUGUGCUACGGGCGAAUAGGACCGGGUAGACCUAGC [SSTB NP+V+V2 #15 +-Same Structure]	0.0601 µM	0.529 µM	0.711 µM	0.0854 µM	0.368 µM
GGUGAUCCGUAUCACCGGAUCAUCGGUGAUACCAGCAUCGAAAGAUGCCCUUGGCAGCACCAACAUGAGGAUCACCCAUGUAAUA [(M)'-(T)'-(M)''-(T1)-(T2)-(M1)-(M2)_Design6]	0.0703 µM	0.067 µM	–	0.0984 µM	–
GCUGGGUGCGCAAGGACCUGGCGUUGCGAUACCAGCACGGUAACGUGCCCUUGGCAGCGCACAUGAGGAUCACCCAUGUGGUGUU [#1 Exclusion - Theophylline A Attempt #19 (HarryS)]	0.0628 µM	0.36 µM	–	0.221 µM	–
GAUGAUAUUGCAGAUACCAGACACAUGAGGAUCACCCAUGUCGUUGGGUAGCUGGGUCGUGUCCCUUGGCAGCUGCGAUAUCAUC [#05 Exclusion-TheophyllineB]	0.0198 µM	0.0482 µM	–	0.0245 µM	–
AAUUAAACAUCGGCCGCCACUUACUCAUGAGGUAACAACAUGAGGAUCACCCAUGUUUGAGGAUCAAGGACCGGGAUGUAAUUUU [AstrosSSTryB#3]	0.028 µM	0.0403 µM	0.0351 µM	–	–
UAAUCUGGUCUUCGAUAGGUGAUCCUCAAACGAGGACCGGUACGGCCGCCACUCGAUAACAUGAGGAUCACCCAUGUACGAGUGA [|T'-M'-Trp-Ms2|_Design16b]	0.0528 µM	0.155 µM	0.205 µM	0.119 µM	0.134 µM
UGUAUGGACUGAAGGAGCGCCUCAAAAUAACUUGAGGAUCACCCAAGUAAGGCGAAAGCCGGGCAGGUAGGUCGCAGUCCAUACU [ArgBX 3]	0.0241 µM	0.0281 µM	0.0152 µM	0.0124 µM	0.0106 µM
AGUGUUGUCUGAAGGAGCGGCCCUUGAUCCUCAUGAGACAUGAGGAUCACCCAUGUCUCGGGCCAGGUAGGUCGCAGGCAUCACA [Omei Arg B SS v1]	0.0226 µM	0.0341 µM	0.0233 µM	0.0237 µM	0.0205 µM
UUUAUUAUUGACUCGUUUUGGUAUUAAGAACGAGGACCGGUACGGCCGCCACUCGUGAUAUACAUGAGGAUCACCCAUGUUAGCA [JR_Nu_SSTryptoA_Sub021]	0.0194 µM	0.0194 µM	0.0183 µM	–	–
AAAGAUCGGAAACGAUCGGCGGCUUGGGCGCGAGGACCGGUACGGCCGCCACUCGGGCAACAUGAGGAUCACCCAUGUUCCUCAU [ETA NP+V+V2 #17]	0.0755 µM	0.245 µM	0.18 µM	0.189 µM	0.146 µM
GACCUUAUCUGAAGGAGCGAGGUAAAUAGGGAUAGGAACAUGAGGAUCACCCAUGUGCGGCCUCAGGUAGGUCGCAGAUGAGAUU [Exclusion Arginine B GF28]	0.042 µM	0.103 µM	0.179 µM	0.113 µM	0.0937 µM

Sequence	apparent KD of MS2 coat protein (input ligand: arginine 13.2 mM)	apparent KD of MS2 coat protein [1]	apparent KD of MS2 coat protein [2]	apparent KD of MS2 coat protein [3]	apparent KD of MS2 coat protein (input ligand: none)
GCCAAAAUACCCGAUACCAGUAUUAAUAGCACAACCUCACACAUGAGGAUCACCCAUGUAUACCCUUGGCAGCGGCCUAACAUAA [theeternabot_exclusion_MS2_Theo_B_49]	0.0305 µM	0.0553 µM	–	0.0369 µM	–
GGUGGGACUUGUGAUACCAGCCUAAUUCGAAUCGAAUUGCACAUGAGGAUCACCCAUGUCGGCCCUUGGCAGCAUGAGUAUUUAU [Aagexe]	0.104 µM	0.129 µM	–	0.255 µM	–
UUACAUGAGGAUCACCCAUGUCAUACAGAAGGAGCGUCACAUAAGACAGGUAGGUCGCUGUUAUUUAAUACUAUUAUAUCCUCUA [JR_Nu_ExcArginiA_Sub027]	0.0269 µM	0.0449 µM	0.0352 µM	0.0328 µM	0.0337 µM
GAGACGUCGGGAAGGAGCGCAUCCAAACCACACAUGAGGAUCACCCAUGUAUAAAUAUGCAUGCAGGUAGGUCGCCCGGUGUCCC [Diaxeon]	0.0597 µM	0.125 µM	0.0978 µM	0.0751 µM	0.0872 µM
GGGAGGUAGGCGGCCGCCACUGAUUUUCAUAUAUAUAUAACAUGAGGAUCACCCAUGUAGAUAUGCAGGACCGGGCCUGUUUUUU [aaaK]	0.0188 µM	0.0305 µM	0.0263 µM	–	–
GCACGACAUGAGGAUCACCCAUGUGCAGAUACCAGUAGGAUAUCCUACCCUUGGCAGCUGAGUAGAUCUGGAGGACUAUAGGUAA [Same State Theophylline A GF9]	0.0155 µM	0.023 µM	0.0212 µM	0.0183 µM	0.0179 µM
ACACAUGACAGAAGGAGCGGAAUGAACACACAUGAGGAUCACCCAUGUUUUUUUUGUGUUUUCCAGGUAGGUCGCUGACAUGAGG [#20 Same State - Arginine B]	0.0112 µM	0.0207 µM	0.00954 µM	0.00895 µM	0.00899 µM
UCCUCAUGGCAUGAUACCAGACCUAACAUGAGGAUCACCCAUGUAUCAGGCAAUUGUUACGUCCCUUGGCAGCAUGUAUGCCGAC [Theo B SS t4]	0.0336 µM	0.0911 µM	–	0.0608 µM	–
AAUUGGGUUGGUGAGGUGGUUGGAGGCGAUACCAGCGUGGAAACACGCCCUUGGCAGCGCCAGGACAUGAGGAUCACCCAUGUAA [Praha]	0.0321 µM	0.486 µM	0.713 µM	0.205 µM	0.26 µM
GUAACACAUGAGGAUCACCCAUGUUCCGAUACCAGUAUUGAAGAUUACCCUUGGCAGCGGGUAGGUCGGAGUGGACGGCCCGAGC [theeternabot_sameState_MS2_Theo_A_8]	0.0179 µM	0.025 µM	–	0.0237 µM	–
ACAUGAGGAUCACCCAUGUUCCUCAUUGAUACCAGUGAAUUUAGACGCCCUUGGCAGCGAGUUUUUUUAUAAGAUGUUUUUUUUU [6.H]	0.244 µM	0.829 µM	–	1.04 µM	–
CCUAUGCAGUCGGCCGCCACUGAACAUGAGGAUCACCCAUGUUAUUAUAAAUAUGGUCCUAAAAUCAGGACCGGGACUGUAUAGG [Ex Tryptophan B 8]	0.0427 µM	0.0679 µM	0.09 µM	–	–
AUGUAGAACCGAAGGAGCGCGAUAACAUGAGGAUCACCCAUGUAGCUUUGGUGGCCUCGAUCGCAGGUAGGUCGCGGAAGUAGUA [Exclusion - Arginine B / A]	0.0408 µM	0.213 µM	0.231 µM	0.155 µM	0.102 µM
GAUCGAUCAUAGUACGAUCGUUUUGUGGAAGGAGCGCAGAGGACUGCAGGUAGGUCGCCACAUGAGGAUCACCCAUGUCAGGAUU [XARG-A 24]	0.0999 µM	0.0625 µM	0.122 µM	0.0328 µM	0.0615 µM
AUGGCGUUGGUGAGGCGGUUUAAUGGCGAUACCAGCGUGGAAACACGCCCUUGGCAGCGCCAAAACAUGAGGAUCACCCAUGUUA [Budejovice]	0.0132 µM	0.028 µM	0.132 µM	0.0164 µM	0.0134 µM
AGAGUCAGACAAAAGUCUGGCUCAGCCGAAGGAGCGUCCGAAAGGACAGGUAGGUCGCGGUUACCUGAGGAUCACCCGGGUUCCU [ArgAS 25 #OpenEnded #AlternativeMS2]	0.0567 µM	0.377 µM	0.59 µM	0.184 µM	0.219 µM
AGUCUUAAAGGAAGGAGCGCAGUCAUAACAUGAGGAUCACCCAUGUCGAUGUGAGGGUCAUUGCAGGUAGGUCGCCUUACUAAGA [Same State - Arginine B (Freestyle 5)]	0.0228 µM	0.046 µM	0.0302 µM	0.0406 µM	0.0404 µM
AUGCACGGGCUAAUCUGCGAUUGGCACGAUACCAGAGAUCAAGACCUCCCUUGGCAGCGUGUCACAUGAGGAUCACCCAUGUGGA [theeternabot_exclusion_MS2_Theo_A_40]	0.0434 µM	0.127 µM	–	0.141 µM	–
